Reference: US20230144447A1 (published 2023)

T1: recombinant human CD22 protein with Fc segment (staining reagent) (human, UniProt P20273 20-687)
T1 construct: Reagent used for flow cytometry staining of the CAR; also called Fc fragment of a recombinant human CD22 protein; Fc segment of recombinant human CD22 protein; not shown: Fc segment
T1 sequence (looked up): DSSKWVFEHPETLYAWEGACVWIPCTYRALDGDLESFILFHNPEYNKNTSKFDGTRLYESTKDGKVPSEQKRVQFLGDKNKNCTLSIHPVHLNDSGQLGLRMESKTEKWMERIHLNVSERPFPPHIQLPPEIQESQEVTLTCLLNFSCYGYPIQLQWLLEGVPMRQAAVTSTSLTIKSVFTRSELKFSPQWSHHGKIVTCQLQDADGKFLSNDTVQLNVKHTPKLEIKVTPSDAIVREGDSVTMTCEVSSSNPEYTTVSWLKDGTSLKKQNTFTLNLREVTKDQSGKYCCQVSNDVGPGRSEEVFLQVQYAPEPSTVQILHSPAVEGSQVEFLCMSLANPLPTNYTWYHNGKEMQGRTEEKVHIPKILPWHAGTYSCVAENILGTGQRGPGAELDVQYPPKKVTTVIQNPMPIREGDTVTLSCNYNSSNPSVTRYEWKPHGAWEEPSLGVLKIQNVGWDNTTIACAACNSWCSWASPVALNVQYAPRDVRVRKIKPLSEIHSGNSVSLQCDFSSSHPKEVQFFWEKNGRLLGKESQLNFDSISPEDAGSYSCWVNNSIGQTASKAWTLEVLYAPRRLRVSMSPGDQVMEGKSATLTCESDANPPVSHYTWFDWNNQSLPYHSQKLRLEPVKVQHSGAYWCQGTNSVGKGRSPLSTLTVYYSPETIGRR

B1: CAR-T22.14 chimeric antigen receptor (anti-CD22 scFv from antibody 4G6, CD8 hinge and transmembrane region, 4-1BB, CD3 zeta), on primary human T cells (other)
chain: QVQLVQSGAEVKKPGSSVKVSCKPSGDTFSNYAISWVRQAPGQGLEWMGRIIPILGMAIYAPKFQGRVTITADKSTNTAFMDLTSLYFEDTAVYYCARAPTYWGSKDYFDYWGQGTLVTVSSGGGGSGGGGSGGGGSAIQLTQSPSSLSASVGDRVTITCRASQDISSGLAWYQQKPGTAPKLLIYDASSLESGVPSRFSGSGSGTDFTLTISSLQPDDFATYYCQQFNSFPYTFGQGTKLEIKFVPVFLPAKPTTTPAPRPPTPAPTIASQPLSLRPEACRPAAGGAVHTRGLDFACDIYIWAPLAGTCGVLLLSLVITLYCKRGRKKLLYIFKQPFMRPVQTTQEEDGCSCRFPEEEEGGCELRVKFSRSADAPAYQQGQNQLYNELNLGRREEYDVLDKRRGRDPEMGGKPRRKNPQEGLYNELQKDKMAEAYSEIGMKGERRRGKGHDGLYQGLSTATKDTYDALHMQALPPR
notes: CAR on the membrane of lentivirus-transduced T cells; also called CART-CD22.14; CAR22.14
B2: CAR-T22.13 chimeric antigen receptor (anti-CD22 scFv from antibody 16F7, CD8 hinge and transmembrane region, 4-1BB, CD3 zeta), on primary human T cells (other)
chain: EVQLVQSGAEVKKPGESLKISCKGSGYNFTSYWIGWVRQMPGKGLEWMGIIYPGDSDTRYSPSFQGQVTISADKSISTAYLQWSSLKASDTAMYYCATPTYYFGSVAFDIWGQGTMVTVSSGGGGSGGGGSGGGGSEIVLTQSPDFQSVTPKEKVTITCRASQSIGSSLHWYQQKPDQSPKLLIKYASQSFSGVPSRFSGSGSGTDFTLTINSLEAEDAAAYYCHQSSSLPYTFGQGTKLEIKFVPVFLPAKPTTTPAPRPPTPAPTIASQPLSLRPEACRPAAGGAVHTRGLDFACDIYIWAPLAGTCGVLLLSLVITLYCKRGRKKLLYIFKQPFMRPVQTTQEEDGCSCRFPEEEEGGCELRVKFSRSADAPAYQQGQNQLYNELNLGRREEYDVLDKRRGRDPEMGGKPRRKNPQEGLYNELQKDKMAEAYSEIGMKGERRRGKGHDGLYQGLSTATKDTYDALHMQALPPR
notes: CAR on the membrane of lentivirus-transduced T cells; also called CART-CD22.13; CAR22.13

Target: T1, recombinant human CD22 protein with Fc …
Assay: flow cytometry of CAR-T cells stained with recombinant human CD22-Fc protein, with untransduced T cells as control
Protocol: 0.2×10⁶ of CART-CD22.5, CART-CD22.13 and CART-CD22.14 sample cells cultured to Day 6 in Example 2 (FIG. 2) were taken, and, after staining the Fc segment of recombinant human CD22 protein, the expression level of CAR-CD22 protein on the surface of T cell membranes was analyzed by flow cytometry, with untransduced T cells (NT cells) used as control.

| Binder | binding result |
| --- | --- |
| B1 | binds |
| B2 | binds |
